The values below come from patent US20110286916A1.

Assay [1] addresses endogenous human Notch1 on 293 FlpIn (TREx) parental, LS-1034 and BxPC3 cells (human) (UniProt P46531). Kind of assay: FACS, LS-1034 and BxPC3 cells.
For assay [2], the target named is human full-length Notch1 with C-terminal FLAG tag, stably expressed on 293 FlpIn (TREx) cells (human) (UniProt P46531). Kind of assay: FACS, 293 FlpIn (TREx) cells expressing Notch1. (In flow cytometry, cells or beads pass a laser one at a time.)

IgG isotype control antibody: the MFI in assay [1] and in assay [2] was 9 each time.
